The term Tm denotes the temperature at which the thermal transition is half complete.

In FireProtDB (doi:10.1007/s00249-013-0926-9) one finds Tm data, which are given here for ten variants.

The labels stand for the following.
B1: Photosystem II lipoprotein Psb27, P74367 (parent)
chain: MSFLKNQLSRLLALILVVAIGLTACDSGTGLTGNYSQDTLTVIATLREAIDLPQDAPNRQEVQDTARGQINDYISRYRRKGDAGGLKSFTTMQTALNSLAGYYTSYGARPIPEKLKKRLQLEFTQAERSIERGV

The variants in the data set derive from B1. The conditions noted are these: Synechocystis sp. (strain ATCC 27184 / PCC 6803 / Kazusa); pH 7; Thermal; CD; Sodium phosphate Tris HCl 20 mM; transition: 2; reversible: Yes; structure 2KMF; whole UniProt chain shown.
With MSFLKNQLSRLLALILVVAIGLTACDSGTGLTGNYSQDTLTVIATLREAIDLPQDAPNRQEVQDTARGQINDYISRYERKGDAGGLKSFTTMQTALNSLAGYYTSYGARPIPEKLKKRLQLEFTQAERSIERGV, the Tm is 57 °C.
Consider MSFLKNQLSRLLALILVVAIGLTACDSGTGLTGNYSQDTLTVIATLREAIDLPQDAPNRQEVQDTARGQINDYISRYRRKGDAGGLKSFTTMQTALNSLAGYYTSYGARPIPEKLKKRLQLEFTQARRSIERGV, for which the Tm was determined as 56.1 °C.
On to MSFLKNQLSRLLALILVVAIGLTACDSGTGLTGNYSQDTLTVIATLREAIDLPQDAPNRQEVQDTARGQINDYISRYRRKGDAGGLKSFTTMQTALNSLAGYYTSYGARPIPEKLKKRLQLRFTQAERSIERGV, for which the Tm amounted to 54.4 °C.
For the variant MSFLKNQLSRLLALILVVAIGLTACDSGTGLTGNYSQATLTVIATLREAIDLPQDAPNRQEVQDTARGQINDYISRYRRKGDAGGLKSFTTMQTALNSLAGYYTSYGARPIPEKLKKRLQLEFTQAERSIERGV, the Tm amounted to 41.9 °C.
With MSFLKNQLSRLLALILVVAIGLTACDSGTGLTGNYSQDTLTVIATLREAIDLPQDAPNRQEVQDTARGQINDYISRYRRKGDAGGLKSFTTMQTALNSLAGHYTSYGARPIPEKLKKRLQLEFTQAERSIERGV, the Tm was found to be 56.3 °C.
Then MSFLKNQLSRLLALILVVAIGLTACDSGTGLTGNYSQDTLTVIATLREAIDLPQDAPNRQEVQDTARGQINDYISRYRRKGDAGGLKSFTTMQTALNSLAGYYTSYGARGGGEKLKKRLQLEFTQAERSIERGV, with 43.3 °C.
Then MSFLKNQLSRLLALILVVAIGLTACDSGTGLTGNYSQDTLTVIATLREAIDLPQDAPNRQEVQDTARGQINDYISRYRRKGDAGGLKSFTTMQTALNSLAGYYTSYGARPIPEKLKKELQLEFTQAERSIERGV, with 56.6 °C; and MSFLKNQLSRLLALILVVAIGLTACDSGTGLTGNYSQDTLTVIATLREAIDLPQDAPNRQEVQDTARGQINDYISRYRRKGDAGGLKSFTTMQTALNSLAGYYTSYGARGIGEKLKKRLQLEFTQAERSIERGV, with 49.2 °C; and MSFLKNQLSRLLALILVVAIGLTASDSGTGLTGNYSQDTLTVIATLREAIDLPQDAPNRQEVQDTARGQINDYISRYRRKGDAGGLKSFTTMQTALNSLAGYYTSYGARPIPEKLKKRLQLEFTQAERSIERGV, with 58.2 °C.
Then MSFLKNQLSRLLALILVVAIGLTACDSGTGLTGNYSQDTLTVIATLREAIDLPQDAPNRQEVQDTARGQINDYISRYRRKGDAGGLKSFTTMQTALNSLAGYYTSYGARPIPEKLKKRLQLEFTQAERSIEEGV, with 60.2 °C.
